This note sets out measurements from the supplement of paper PMC7877785.

± gives the uncertainty stated by the source.

A short description of the data set: self-splicing fitness, log relative to wild type (ln ratio); higher = more splicing; Tetrahymena group I intron in knt gene, E. coli kanamycin selection, DiMSum; sequences stand for … in CUCUCU…GGAGGGAAAAGUUAUCAGGCAUGCACCUGGUAGCUAGUCUUUAAACCAAUAGAUUGCAUCGGUUUAAAAGGCAAGACCGUCAAAUUGCGGGAAAGGGGUCAACAGCCGUUCAGUACCAAGUCUCAGGGGAAACUUUGAGAUGGCCUUGCAAAGGGUAUGGUAAUAAGCUGACGGACAUGGUCCUAACCACGCAGCCAAGUCCUAAGUCAACAGAUCUUCUGUUGAUAUGGAUGCAGUUCACAGACUAAAUGUCGGUCGGGGAAGAUGUAUUCUUCUCAUAAGAUAUAGUCGGACCUCUCCUUAAUGGGAGCUAGCGGAUGAAGUGAUGCAACACUGGAGCCGCUGGGAACUAAUUUGUAUGCGAAAGUAUAUUGAUUAGUUUUGGAGUACUCGUGGUCG
In outline: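 Fitness was computed with DiMSum as the error-weighted combination of replicate fold changes, kanamycin versus none, each normalised to wild type. The library randomised all eight intron nucleotides of the P1ex region, with the intron placed in the knt kanamycin-resistance gene on pET-22b(+) in E. coli BL21(DE3). Six replicate transformations were grown overnight at 37°C or 30°C on LB agar with or without 25 μg/mL kanamycin, plus 100 μg/mL carbenicillin, 50 μM IPTG and 0.2% rhamnose. Pooled colonies were amplicon-sequenced on an Illumina HiSeq 2500.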

With CAAUAGCAAUAUUACGGCUU, the “self-splicing fitness (ln)” value runs as follows: (30 °C) -2.53 ± 0.13; (37 °C) -1.42 ± 0.13.
The like results for CAAUAGCAAUAUUACGGUGA were, in that order, -2.83 ± 0.23 and -2.09 ± 0.21.
The like results for CAAUAGCAAUAUUACGUAGG were, in that order, -0.348 ± 0.092 and -0.384 ± 0.14.
The like results for CAAUAGCAAUAUUACGUCCU were, in that order, -3.78 ± 0.42 and -2.4 ± 0.28.
CAAUAGCAAUAUUACGUCGC: the “self-splicing fitness (ln)” value reads like this: (30 °C) -4.1 ± 0.36; (37 °C) -2.56 ± 0.29.
For CAAUAGCAAUAUUACGUCGG, in that order: -0.177 ± 0.069 and 0.202 ± 0.083.
For CAAUAGCAAUAUUACGUCUA, in that order: -2.78 ± 0.19 and -2.52 ± 0.21.
In the case of CAAUAGCAAUAUUACGUGGA, the “self-splicing fitness (ln)” value was -3.29 ± 0.25 (30 °C) and -2.92 ± 0.22 (37 °C).
The like results for CAAUAGCAAUAUUACGUGGG were, in that order, -3.7 ± 0.15 and -3.49 ± 0.21.
For CAAUAGCAAUAUUACGUGUU, in that order: -4.08 ± 0.16 and -2.95 ± 0.17.
On to CAAUAGCAAUAUUACGUUCG, for which the “self-splicing fitness (ln)” value is, setting by setting: (30 °C) -0.45 ± 0.057; (37 °C) 0.556 ± 0.081.
On to CACAAGCAAUAUUACGAAAG, for which the “self-splicing fitness (ln)” value reads like this: (30 °C) -0.721 ± 0.08; (37 °C) 0.0107 ± 0.1.
The like results for CACAAGCAAUAUUACGAAAU were, in that order, -2.91 ± 0.19 and -3.24 ± 0.24.
The like results for CACAAGCAAUAUUACGACAA were, in that order, -3.12 ± 0.2 and -2.04 ± 0.17.
Regarding CACAAGCAAUAUUACGACCC, the “self-splicing fitness (ln)” value (30 °C) is -2.15 ± 0.4 and the “self-splicing fitness (ln)” value (37 °C) was -0.814 ± 0.24.
For CACAAGCAAUAUUACGACCG, in that order: 0.562 ± 0.17 and 0.582 ± 0.2.
The like results for CACAAGCAAUAUUACGACGA were, in that order, -0.927 ± 0.11 and -0.995 ± 0.12.
For CACAAGCAAUAUUACGACGC, in that order: -2.86 ± 0.32 and -1.17 ± 0.18.
For CACAAGCAAUAUUACGAUCG, the “self-splicing fitness (ln)” value reads like this: (30 °C) -0.581 ± 0.069; (37 °C) 0.875 ± 0.091.
For CACAAGCAAUAUUACGAUGA, in that order: -2.99 ± 0.11 and -1.21 ± 0.09.
For CACAAGCAAUAUUACGAUGG, in that order: -0.756 ± 0.045 and 0.369 ± 0.07.
Consider CACAAGCAAUAUUACGCAAG, for which the “self-splicing fitness (ln)” value (30 °C) was -1.54 ± 0.087 and the “self-splicing fitness (ln)” value (37 °C) was -0.814 ± 0.1.
The like results for CACAAGCAAUAUUACGCGAC were, in that order, -2.93 ± 0.15 and -3.22 ± 0.27.
The like results for CACAAGCAAUAUUACGCUCA were, in that order, -1.45 ± 0.093 and -0.209 ± 0.097.
The like results for CACAAGCAAUAUUACGGACA were, in that order, -2.34 ± 0.12 and -2.29 ± 0.12.
Turning to CACAAGCAAUAUUACGGACC, the “self-splicing fitness (ln)” value is, setting by setting: (30 °C) -3.41 ± 0.24; (37 °C) -1.73 ± 0.2.
For CACAAGCAAUAUUACGGAUA, in that order: -1.79 ± 0.15 and -2.4 ± 0.17.
For CACAAGCAAUAUUACGGCAC, in that order: -2.95 ± 0.19 and -1.56 ± 0.17.
For CACAAGCAAUAUUACGGCCA, in that order: -1.1 ± 0.13 and -0.928 ± 0.16.
With CACAAGCAAUAUUACGGGCU, the “self-splicing fitness (ln)” value is, setting by setting: (30 °C) -4.15 ± 0.24; (37 °C) -2.29 ± 0.17.
As to CACAAGCAAUAUUACGUACG, the “self-splicing fitness (ln)” value (30 °C) was -0.467 ± 0.063 and the “self-splicing fitness (ln)” value (37 °C) was found to be 0.449 ± 0.083.
For CACAAGCAAUAUUACGUACU, in that order: -3.09 ± 0.12 and -0.878 ± 0.1.
For CACAAGCAAUAUUACGUAUG, in that order: -2.55 ± 0.095 and -1.08 ± 0.085.
For CACAAGCAAUAUUACGUGAG, in that order: -4.48 ± 0.15 and -3.21 ± 0.19.
As for CACAAGCAAUAUUACGUGUG, the “self-splicing fitness (ln)” value was -3.65 ± 0.12 (30 °C) and -2.69 ± 0.12 (37 °C).
The like results for CACAAGCAAUAUUACGUUUU were, in that order, -4.18 ± 0.15 and -3.45 ± 0.22.
For CACCAGCAAUAUUACGAAGA, in that order: -3.26 ± 0.21 and -1.81 ± 0.2.
